Target: NK1 receptor (human) (UniProt P25103)
Assay: cell-based or functional assay

Chain of NK1 receptor (human) (P25103 87-407): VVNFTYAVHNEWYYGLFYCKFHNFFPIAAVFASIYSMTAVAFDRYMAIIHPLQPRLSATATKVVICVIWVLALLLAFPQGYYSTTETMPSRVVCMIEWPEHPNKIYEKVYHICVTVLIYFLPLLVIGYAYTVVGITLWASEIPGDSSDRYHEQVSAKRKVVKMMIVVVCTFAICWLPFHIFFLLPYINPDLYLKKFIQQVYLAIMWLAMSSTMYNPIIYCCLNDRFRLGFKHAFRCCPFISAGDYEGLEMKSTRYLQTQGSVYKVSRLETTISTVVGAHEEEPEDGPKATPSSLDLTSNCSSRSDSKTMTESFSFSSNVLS

Substance: anti-NK1 antibody (S8305, Sigma-Aldrich)
- Percentage of inhibition of cell cultures; Breast carcinoma (ductal adenocarcinoma); cases with amplification of the gene that encodes for the NK1 receptor: 96%
- Percentage of inhibition of cell cultures; Breast carcinoma (ductal adenocarcinoma); cases without amplification of the gene that encodes for the NK1 receptor: 26%
- Percentage of inhibition of cell cultures; Breast carcinoma (ductal adenocarcinoma); high expression of the truncated form of NK1 receptor (Group B): 94%
- Percentage of inhibition of cell cultures; Breast carcinoma (ductal adenocarcinoma); low expression of the truncated form of NK1 receptor (Group A): 24%
- Percentage of inhibition of cell cultures; Burkitt Lymphoma; cases with amplification of the gene that encodes for the NK1 receptor: 96%
- Percentage of inhibition of cell cultures; Burkitt Lymphoma; cases without amplification of the gene that encodes for the NK1 receptor: 25%
- Percentage of inhibition of cell cultures; Burkitt Lymphoma; high expression of the truncated form of NK1 receptor (Group B): 96%
- Percentage of inhibition of cell cultures; Burkitt Lymphoma; low expression of the truncated form of NK1 receptor (Group A): 26%
- Percentage of inhibition of cell cultures; Carcinoma of the uterine cervix (Squamous cell carcinoma); cases with amplification of the gene that encodes for the NK1 receptor: 94%
- Percentage of inhibition of cell cultures; Carcinoma of the uterine cervix (Squamous cell carcinoma); cases without amplification of the gene that encodes for the NK1 receptor: 27%
- Percentage of inhibition of cell cultures; Carcinoma of the uterine cervix (Squamous cell carcinoma); high expression of the truncated form of NK1 receptor (Group B): 95%
- Percentage of inhibition of cell cultures; Carcinoma of the uterine cervix (Squamous cell carcinoma); low expression of the truncated form of NK1 receptor (Group A): 24%
- Percentage of inhibition of cell cultures; Colon carcinoma (Adenocarcinoma); cases with amplification of the gene that encodes for the NK1 receptor: 96%
- Percentage of inhibition of cell cultures; Colon carcinoma (Adenocarcinoma); cases without amplification of the gene that encodes for the NK1 receptor: 24%
- Percentage of inhibition of cell cultures; Colon carcinoma (Adenocarcinoma); high expression of the truncated form of NK1 receptor (Group B): 94%
- Percentage of inhibition of cell cultures; Colon carcinoma (Adenocarcinoma); low expression of the truncated form of NK1 receptor (Group A): 24%
- Percentage of inhibition of cell cultures; Endometrium carcinoma; cases with amplification of the gene that encodes for the NK1 receptor: 96%
- Percentage of inhibition of cell cultures; Endometrium carcinoma; cases without amplification of the gene that encodes for the NK1 receptor: 28%
- Percentage of inhibition of cell cultures; Endometrium carcinoma; high expression of the truncated form of NK1 receptor (Group B): 94%
- Percentage of inhibition of cell cultures; Endometrium carcinoma; low expression of the truncated form of NK1 receptor (Group A): 26%
- Percentage of inhibition of cell cultures; Gastric carcinoma (Adenocarcinoma); cases with amplification of the gene that encodes for the NK1 receptor: 95%
- Percentage of inhibition of cell cultures; Gastric carcinoma (Adenocarcinoma); cases without amplification of the gene that encodes for the NK1 receptor: 25%
- Percentage of inhibition of cell cultures; Gastric carcinoma (Adenocarcinoma); high expression of the truncated form of NK1 receptor (Group B): 96%
- Percentage of inhibition of cell cultures; Gastric carcinoma (Adenocarcinoma); low expression of the truncated form of NK1 receptor (Group A): 22%
- Percentage of inhibition of cell cultures; Glioma (astrocytoma); cases with amplification of the gene that encodes for the NK1 receptor: 95%
- Percentage of inhibition of cell cultures; Glioma (astrocytoma); cases without amplification of the gene that encodes for the NK1 receptor: 25%
- Percentage of inhibition of cell cultures; Glioma (astrocytoma); high expression of the truncated form of NK1 receptor (Group B): 96%
- Percentage of inhibition of cell cultures; Glioma (astrocytoma); low expression of the truncated form of NK1 receptor (Group A): 24%
- Percentage of inhibition of cell cultures; Lung carcinoma (non small cell lung carcinoma); cases with amplification of the gene that encodes for the NK1 receptor: 97%
- Percentage of inhibition of cell cultures; Lung carcinoma (non small cell lung carcinoma); cases without amplification of the gene that encodes for the NK1 receptor: 25%
- Percentage of inhibition of cell cultures; Lung carcinoma (non small cell lung carcinoma); high expression of the truncated form of NK1 receptor (Group B): 95%
- Percentage of inhibition of cell cultures; Lung carcinoma (non small cell lung carcinoma); low expression of the truncated form of NK1 receptor (Group A): 26%
- Percentage of inhibition of cell cultures; Lung carcinoma (small cell lung carcinoma); cases with amplification of the gene that encodes for the NK1 receptor: 95%
- Percentage of inhibition of cell cultures; Lung carcinoma (small cell lung carcinoma); cases without amplification of the gene that encodes for the NK1 receptor: 26%
- Percentage of inhibition of cell cultures; Lung carcinoma (small cell lung carcinoma); high expression of the truncated form of NK1 receptor (Group B): 96%
- Percentage of inhibition of cell cultures; Lung carcinoma (small cell lung carcinoma); low expression of the truncated form of NK1 receptor (Group A): 25%
- Percentage of inhibition of cell cultures; Melanoma (Nodular Melanoma); cases with amplification of the gene that encodes for the NK1 receptor: 97%
- Percentage of inhibition of cell cultures; Melanoma (Nodular Melanoma); cases without amplification of the gene that encodes for the NK1 receptor: 26%
- Percentage of inhibition of cell cultures; Melanoma (Nodular Melanoma); high expression of the truncated form of NK1 receptor (Group B): 96%
- Percentage of inhibition of cell cultures; Melanoma (Nodular Melanoma); low expression of the truncated form of NK1 receptor (Group A): 26%
- Percentage of inhibition of cell cultures; Non Hodgkin Lymphoma B (diffuse B cell lymphoma); cases with amplification of the gene that encodes for the NK1 receptor: 94%
- Percentage of inhibition of cell cultures; Non Hodgkin Lymphoma B (diffuse B cell lymphoma); cases without amplification of the gene that encodes for the NK1 receptor: 26%
- Percentage of inhibition of cell cultures; Non Hodgkin Lymphoma B (diffuse B cell lymphoma); high expression of the truncated form of NK1 receptor (Group B): 95%
- Percentage of inhibition of cell cultures; Non Hodgkin Lymphoma B (diffuse B cell lymphoma); low expression of the truncated form of NK1 receptor (Group A): 24%
- Percentage of inhibition of cell cultures; Non Hodgkin Lymphoma T (diffuse T cell lymphoma); cases with amplification of the gene that encodes for the NK1 receptor: 95%
- Percentage of inhibition of cell cultures; Non Hodgkin Lymphoma T (diffuse T cell lymphoma); cases without amplification of the gene that encodes for the NK1 receptor: 24%
- Percentage of inhibition of cell cultures; Non Hodgkin Lymphoma T (diffuse T cell lymphoma); high expression of the truncated form of NK1 receptor (Group B): 95%
- Percentage of inhibition of cell cultures; Non Hodgkin Lymphoma T (diffuse T cell lymphoma); low expression of the truncated form of NK1 receptor (Group A): 25%
- Percentage of inhibition of cell cultures; Ovarian carcinoma (Adenocarcinoma); cases with amplification of the gene that encodes for the NK1 receptor: 95%
- Percentage of inhibition of cell cultures; Ovarian carcinoma (Adenocarcinoma); cases without amplification of the gene that encodes for the NK1 receptor: 24%
- Percentage of inhibition of cell cultures; Ovarian carcinoma (Adenocarcinoma); high expression of the truncated form of NK1 receptor (Group B): 95%
- Percentage of inhibition of cell cultures; Ovarian carcinoma (Adenocarcinoma); low expression of the truncated form of NK1 receptor (Group A): 25%
- Percentage of inhibition of cell cultures; Pancreatic carcinoma (Adenocarcinoma); cases with amplification of the gene that encodes for the NK1 receptor: 96%
- Percentage of inhibition of cell cultures; Pancreatic carcinoma (Adenocarcinoma); cases without amplification of the gene that encodes for the NK1 receptor: 25%
- Percentage of inhibition of cell cultures; Pancreatic carcinoma (Adenocarcinoma); high expression of the truncated form of NK1 receptor (Group B): 95%
- Percentage of inhibition of cell cultures; Pancreatic carcinoma (Adenocarcinoma); low expression of the truncated form of NK1 receptor (Group A): 23%
- Percentage of inhibition of cell cultures; Prostate carcinoma; cases with amplification of the gene that encodes for the NK1 receptor: 95%
- Percentage of inhibition of cell cultures; Prostate carcinoma; cases without amplification of the gene that encodes for the NK1 receptor: 25%
- Percentage of inhibition of cell cultures; Prostate carcinoma; high expression of the truncated form of NK1 receptor (Group B): 95%
- Percentage of inhibition of cell cultures; Prostate carcinoma; low expression of the truncated form of NK1 receptor (Group A): 27%
- Percentage of inhibition of cell cultures; Renal cell carcinoma (clear cell renal cell carcinoma); cases with amplification of the gene that encodes for the NK1 receptor: 97%
- Percentage of inhibition of cell cultures; Renal cell carcinoma (clear cell renal cell carcinoma); cases without amplification of the gene that encodes for the NK1 receptor: 27%
- Percentage of inhibition of cell cultures; Renal cell carcinoma (clear cell renal cell carcinoma); high expression of the truncated form of NK1 receptor (Group B): 93%
- Percentage of inhibition of cell cultures; Renal cell carcinoma (clear cell renal cell carcinoma); low expression of the truncated form of NK1 receptor (Group A): 24%
- Percentage of inhibition of cell cultures; Thyroid carcinoma (follicular carcinoma); cases with amplification of the gene that encodes for the NK1 receptor: 95%
- Percentage of inhibition of cell cultures; Thyroid carcinoma (follicular carcinoma); cases without amplification of the gene that encodes for the NK1 receptor: 26%
- Percentage of inhibition of cell cultures; Thyroid carcinoma (follicular carcinoma); high expression of the truncated form of NK1 receptor (Group B): 94%
- Percentage of inhibition of cell cultures; Thyroid carcinoma (follicular carcinoma); low expression of the truncated form of NK1 receptor (Group A): 24%
- Percentage of inhibition of cell cultures; Thyroid carcinoma (papillary carcinoma); cases with amplification of the gene that encodes for the NK1 receptor: 96%
- Percentage of inhibition of cell cultures; Thyroid carcinoma (papillary carcinoma); cases without amplification of the gene that encodes for the NK1 receptor: 27%
- Percentage of inhibition of cell cultures; Thyroid carcinoma (papillary carcinoma); high expression of the truncated form of NK1 receptor (Group B): 95%
- Percentage of inhibition of cell cultures; Thyroid carcinoma (papillary carcinoma); low expression of the truncated form of NK1 receptor (Group A): 25%
- Percentage of inhibition of cell cultures; Undifferentiated Pleomorphic Sarcoma (malignant fibrous histiocytoma grade 3); cases with amplification of the gene that encodes for the NK1 receptor: 96%
- Percentage of inhibition of cell cultures; Undifferentiated Pleomorphic Sarcoma (malignant fibrous histiocytoma grade 3); cases without amplification of the gene that encodes for the NK1 receptor: 25%
- Percentage of inhibition of cell cultures; Undifferentiated Pleomorphic Sarcoma (malignant fibrous histiocytoma grade 3); high expression of the truncated form of NK1 receptor (Group B): 95%
- Percentage of inhibition of cell cultures; Undifferentiated Pleomorphic Sarcoma (malignant fibrous histiocytoma grade 3); low expression of the truncated form of NK1 receptor (Group A): 25%
- Percentage of inhibition of cell cultures; Urinary bladder carcinoma (transitional cell carcinoma); cases with amplification of the gene that encodes for the NK1 receptor: 94%
- Percentage of inhibition of cell cultures; Urinary bladder carcinoma (transitional cell carcinoma); cases without amplification of the gene that encodes for the NK1 receptor: 24%
- Percentage of inhibition of cell cultures; Urinary bladder carcinoma (transitional cell carcinoma); high expression of the truncated form of NK1 receptor (Group B): 96%
- Percentage of inhibition of cell cultures; Urinary bladder carcinoma (transitional cell carcinoma); low expression of the truncated form of NK1 receptor (Group A): 26%
